Assay results as given in patent publication US20190127446A1.

Assays:
[1] = target: soluble version of the extracellular domain of gp75; test: SPR; soluble gp75 extracellular domain injected over immobilized antibody
[2] = target: soluble human Fcγ-receptor IIIA (158F-allele) (human) (UniProt P08637); test: SPR, soluble human Fcγ-receptor and human IgG isotype
[3] = target: soluble human Fcγ-receptor IIB (human) (UniProt P31994); test: as above
[4] = target: soluble human Fcγ-receptor IIA (131H-allele) (human) (UniProt P12318); test: as above
soluble human Fcγ-receptor IIA (131H-allele) (human), sequence (P12318 34-217): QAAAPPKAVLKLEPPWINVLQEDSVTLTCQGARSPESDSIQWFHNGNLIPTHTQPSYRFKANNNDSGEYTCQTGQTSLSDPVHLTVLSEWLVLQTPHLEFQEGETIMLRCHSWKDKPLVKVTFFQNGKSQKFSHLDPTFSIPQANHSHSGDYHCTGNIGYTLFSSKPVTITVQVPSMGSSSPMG

[5] = target: soluble human Fcγ-receptor IIIA (158F-allele) (human) (UniProt P08637); test: ratio of SPR KA values
[6] = target: soluble human Fcγ-receptor IIA (131H-allele) (human) (UniProt P12318); test: ratio of SPR KA values
[7] = target: soluble mouse Fcγ-receptor IIB (mouse) (UniProt P08101); test: SPR (Biacore), soluble receptor injected over immobilized antibody, 1:1 Langmuir
soluble mouse Fcγ-receptor IIB (mouse), sequence (P08101 other isoform, or with tags, fused parts or gaps): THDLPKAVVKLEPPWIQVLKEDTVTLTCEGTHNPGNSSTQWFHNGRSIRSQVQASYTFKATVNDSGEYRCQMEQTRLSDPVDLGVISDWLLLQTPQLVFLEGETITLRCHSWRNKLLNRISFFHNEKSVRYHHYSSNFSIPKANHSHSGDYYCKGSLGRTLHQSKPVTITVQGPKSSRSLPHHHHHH

[8] = target: soluble mouse Fcγ-receptor IV (mouse); test: as above
[9] = target: soluble mouse Fcγ-receptor III (mouse) (UniProt P08508); test: as above
soluble mouse Fcγ-receptor III (mouse), sequence (P08508 other isoform, or with tags, fused parts or gaps): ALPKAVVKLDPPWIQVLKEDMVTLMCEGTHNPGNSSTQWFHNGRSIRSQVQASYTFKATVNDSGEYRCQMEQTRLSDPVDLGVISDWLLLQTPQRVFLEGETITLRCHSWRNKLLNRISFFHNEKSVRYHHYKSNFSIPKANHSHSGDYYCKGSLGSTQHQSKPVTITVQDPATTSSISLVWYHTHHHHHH

[10] = target: soluble mouse Fcγ-receptor IV (mouse); test: ratio of SPR KA values
[11] = target: soluble mouse Fcγ-receptor IIB (mouse) (UniProt P08101); test: SPR
[12] = target: soluble mouse Fcγ-receptor III (mouse) (UniProt P08508); test: ratio of SPR KA values
[13] = target: soluble mouse Fcγ-receptor I (mouse) (UniProt P26151); test: SPR (Biacore), soluble receptor injected over immobilized antibody, 1:1 Langmuir
soluble mouse Fcγ-receptor I (mouse), sequence (P26151 other isoform, or with tags, fused parts or gaps): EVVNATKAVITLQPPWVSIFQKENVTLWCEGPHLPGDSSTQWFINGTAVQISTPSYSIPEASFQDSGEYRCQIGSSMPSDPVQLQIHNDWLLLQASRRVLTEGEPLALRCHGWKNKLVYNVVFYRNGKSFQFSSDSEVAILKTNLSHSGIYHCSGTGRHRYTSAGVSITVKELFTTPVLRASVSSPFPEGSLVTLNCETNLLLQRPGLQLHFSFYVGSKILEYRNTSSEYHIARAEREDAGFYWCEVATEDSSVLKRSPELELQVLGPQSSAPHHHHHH

[14] = target: soluble mouse Fcγ-receptor IV (mouse); test: SPR

soluble human Fcγ-receptor IIB (human), sequence (P31994 43-217): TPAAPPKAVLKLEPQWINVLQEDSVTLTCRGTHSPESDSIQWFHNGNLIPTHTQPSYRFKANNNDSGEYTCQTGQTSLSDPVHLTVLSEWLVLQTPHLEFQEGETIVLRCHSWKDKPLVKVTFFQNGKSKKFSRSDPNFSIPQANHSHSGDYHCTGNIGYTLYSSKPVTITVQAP
soluble human Fcγ-receptor IIIA (158F-allele) (human), sequence (P08637 17-208): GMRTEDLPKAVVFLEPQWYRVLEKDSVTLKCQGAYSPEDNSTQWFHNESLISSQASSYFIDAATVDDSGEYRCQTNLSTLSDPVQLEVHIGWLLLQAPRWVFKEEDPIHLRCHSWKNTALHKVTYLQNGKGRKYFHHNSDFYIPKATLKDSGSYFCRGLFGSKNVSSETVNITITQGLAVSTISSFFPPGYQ

Row | Substance | Ka [1] | Kd [1] | Ka [2] | Ka [3] | Ka [4] | A/I IIIA/IIB (ratio of affinity to that for FcγRIIB) [5] | A/I IIA/IIB (ratio of affinity to that for FcγRIIB) [6] | Ka [7] | Ka [8] | Ka [9] | A/I (ratio of sFcγRIV to sFcγRIIB) [10] | also measured
1 | TA99-IgG3 (antibody) | 1.5e+09 M⁻¹ | 0.66 nM | – | – | – | – | – | – | – | – | – | –
2 | human IgG1 antibody isotype lacking fucose | – | – | 6e+06 M⁻¹ | 78000 M⁻¹ | 240000 M⁻¹ | 76 | 3.1 | – | – | – | – | –
3 | human IgG1 antibody isotype | – | – | 430000 M⁻¹ | 78000 M⁻¹ | 250000 M⁻¹ | 5.5 | 3.1 | – | – | – | – | –
4 | human IgG4 antibody isotype | – | – | – | 48000 M⁻¹ | 35000 M⁻¹ | – | 0.7 | – | – | – | – | –
5 | TA99-IgG2b deficient in fucose (antibody) | – | – | – | – | – | – | – | 1e+07 M⁻¹ | 2.03e+08 M⁻¹ | 1.06e+06 M⁻¹ | 20 | –
6 | human IgG2 antibody isotype | – | – | 14000 M⁻¹ | 30000 M⁻¹ | 140000 M⁻¹ | 0.4 | 4.5 | – | – | – | – | –
7 | human IgG2 antibody isotype lacking fucose | – | – | 140000 M⁻¹ | 26000 M⁻¹ | 130000 M⁻¹ | 5.7 | 5.3 | – | – | – | – | –
8 | TA99-IgG1 (fucose-containing) (antibody) | 2.7e+09 M⁻¹ | 0.38 nM | – | – | – | – | – | 3.33e+06 M⁻¹ | – | 310000 M⁻¹ | – | fold higher affinity than to FcγRIII [11]: 10 fold; A/I (ratio of affinity for sFcγRIII to that for FcγRIIB) [12]: 0.1
9 | TA99-IgG2a (fucose-containing) (antibody) | 1.6e+09 M⁻¹ | 0.61 nM | – | – | – | – | – | 420000 M⁻¹ | 2.9e+07 M⁻¹ | 680000 M⁻¹ | 69 | Ka [13]: 1.6e+08 M⁻¹; fold higher affinity than to FcγRIIB [14]: 10 fold
10 | TA99-IgG2b (fucose-containing) (antibody) | 1.8e+09 M⁻¹ | 0.57 nM | – | – | – | – | – | 2.23e+06 M⁻¹ | 1.7e+07 M⁻¹ | 640000 M⁻¹ | 7 | fold higher affinity than to FcγRIIB [14]: 10 fold
11 | TA99-IgG1 deficient in fucose (antibody) | – | – | – | – | – | – | – | 1.32e+06 M⁻¹ | – | 510000 M⁻¹ | – | A/I (ratio of affinity for sFcγRIII to that for FcγRIIB) [12]: 0.4
12 | TA99-IgG2a deficient in fucose (antibody) | – | – | – | – | – | – | – | 3.34e+06 M⁻¹ | 3.06e+08 M⁻¹ | 1.54e+06 M⁻¹ | 92 | Ka [13]: 1.8e+08 M⁻¹
